Experimental data taken from PMC3466254, “Cthrc1, a Novel Circulating Hormone Regulating Metabolism” (PLoS ONE, 2012).

Target: the molecule itself
Experiment: non-reducing SDS-PAGE with autoradiography; 1 µl of plasma of Cthrc1 null mice taken 30 min after intra-arterial injection of purified 125I-Cthrc1; SDS-PAGE under non-reducing conditions, autoradiography

B1: rat Cthrc1 with a C terminal myc/6×His tag, labeled with 125I (natural protein, UniProt Q8CG08 33-245, looked up)
chain: SENPKVKQKALIRQREVVDLYNGMCLQGPAGVPGRDGSPGANGIPGTPGIPGRDGFKGEKGECLRESFEESWTPNYKQCSWSSLNYGIDLGKIAECTFTKMRSNSALRVLFSGSLRLKCRNACCQRWYFTFNGAECSGPLPIEAIIYLDQGSPELNSTINIHRTSSVEGLCEGIGAGLVDVAIWVGTCSDYPKGDASTGWNSVSRIIIEELPK
modifications: labeled with 125I (iodination tubes); residues not stated
notes: Cthrc1 (collagen triple helix repeat containing 1), rat; secreted into the conditioned medium; also called 125I-Cthrc1; 125I-labeled Cthrc1
  binding result: binds
